# Experimental data published in US20220023420A1 (PRECIGEN, published 2022).
# Molecular target: T1, TGF-β1 (UniProt P01137 279-390)
# Experiment: cell-based or functional assay
# T1 sequence (P01137 279-390 limits assumed): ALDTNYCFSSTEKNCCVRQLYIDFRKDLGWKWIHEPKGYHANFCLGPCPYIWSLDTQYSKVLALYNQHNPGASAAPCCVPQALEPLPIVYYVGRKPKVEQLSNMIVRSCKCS
row,Binder,"IC50-inhibition of TGF-β1 induced reporter gene activity (HEK-Blue TGF-β cells, SEAP) [pM]"
1,Anti-PD-1(VH7-VL6) IgG4-TGFβRII (other) heavy: QVQLVQSGVEVKKPGASVKVSCKASGYTFTNYYMYWVRQAPGQGLEWMGGINPSNGGTNFNEKFKNRVTLTTDSSTTTAYMELKSLQFDDTAVYYCARRDYRFDMGFDYWGQGTTVTVSSASTKGPSVFPLAPCSRSTSESTAALGCLVKDYFPEPVTVSWNSGALTSGVHTFPAVLQSSGLYSLSSVVTVPSSSLGTKTYTCNVDHKPSNTKVDKRVESKYGPPCPSCPAPEFLGGPSVFLFPPKPKDTLMISRTPEVTCVVVDVSQEDPEVQFNWYVDGVEVHNAKTKPREEQFNSTYRVVSVLTVLHQDWLNGKEYKCKVSNKGLPSSIEKTISKAKGQPREPQVYTLPPSQEEMTKNQVSLTCLVKGFYPSDIAVEWESNGQPENNYKTTPPVLDSDGSFFLYSRLTVDKSRWQEGNVFSCSVMHEALHNHYTQKSLSLSPGKGGGGSGGGGSIPPHVQKSVNNDMIVTDNNGAVKFPQLCKFCDVRFSTCDNQKSCMSNCSITSICEKPQEVCVAVWRKNDENITLETVCHDPKLPYHDFILEDAASPKCIMKEKKKPGETFFMCSCSSDECNDNIIFSEEYNTSNPD light: EIVLTQSPATLSLSPGERATLSCRASKGVSTSGYSYLHWYQQKPGQAPRLLIYLASYLESGVPARFSGSGSGTDFTLTISSLEPEDFAVYYCQHSRDLPLTFGGGTKVEIKRTVAAPSVFIFPPSDEQLKSGTASVVCLLNNFYPREAKVQWKVDNALQSGNSQESVTEQDSKDSTYSLSSTLTLSKADYEKHKVYACEVTHQGLSSPVTKSFNRGEC,5.6
2,"Anti-PD-1 (VL5-VH6).IgG4 (antibody, V domains shown) VH: QVQLVESGGGVVQPGRSLRLDCKASGITFSNSGMHWVRQAPGKGLEWVAVIWYDGSKRYYADSVKGRFTISRDNSKNTLFLQMNSLRAEDTAVYYCATNDDYWGQGTLVTVSS VL: EIVLTQSPATLSLSPGERATLSCRASQSVSSYLAWYQQKPGQAPRLLIYDASNRATGIPARFSGSGSGTDFTLTISSLEPEDFAVYYCQQSSNWPRTFGQGTKVEIK",9
3,Anti-PD-1 (nVL1-nVH3).IgG4-TGFbRII (other) heavy (part 1 of 2): QVQLVESGGGVVQPGRSLRLDCKASGITFSNSGMHWVRQAPGKGLEWVAVIWYDGSKRYYADSVKGRFTISRDNSKNTLFLQMNSLRAEDTAVYYCATNNDYWGQGTLVTVSS heavy (part 2 of 2): GGGGSGGGGSIPPHVQKSVNNDMIVTDNNGAVKFPQLCKFCDVRFSTCDNQKSCMSNCSITSICEKPQEVCVAVWRKNDENITLETVCHDPKLPYHDFILEDAASPKCIMKEKKKPGETFFMCSCSSDECNDNIIFSEEYNTSNPD VL: EIVMTQSPATLSLSPGERATLSCRASQSVSSYLAWYQQKPGQAPRLLIYDASNRATGIPARFSGSGSGTDFTLTISSLEPEDFAVYYCQQYNNWPRTFGQGTKVEIK,10.7
4,Anti-PD-1 (nVL1-nVH8).IgG4-TGFbRII (other) heavy (part 1 of 2): EVQLVQSGGGVVQPGRSLRLSCAASGFTFSSYGMHWVRQAPGKGLEWVAVIWYDGSNKYYADSVKGRFTISRDNSKNTLYLQMNSLRAEDTAVYYCATNNDYWGQGTLVTVSS heavy (part 2 of 2): GGGGSGGGGSIPPHVQKSVNNDMIVTDNNGAVKFPQLCKFCDVRFSTCDNQKSCMSNCSITSICEKPQEVCVAVWRKNDENITLETVCHDPKLPYHDFILEDAASPKCIMKEKKKPGETFFMCSCSSDECNDNIIFSEEYNTSNPD VL: EIVMTQSPATLSLSPGERATLSCRASQSVSSYLAWYQQKPGQAPRLLIYDASNRATGIPARFSGSGSGTDFTLTISSLEPEDFAVYYCQQYNNWPRTFGQGTKVEIK,54.5
5,Anti-PD-1 (nVL1-nVH7).IgG4-TGFbRII (other) heavy (part 1 of 2): QVQLVESGGGVVQPGRSLRLDCKASGFTFSNSGMHWVRQAPGKGLEWVAVIWYDGSKRYYADSVKGRFTISRDNSKNTLFLQMNSLRAEDTAVYYCATNNDYWGQGTLVTVSS heavy (part 2 of 2): GGGGSGGGGSIPPHVQKSVNNDMIVTDNNGAVKFPQLCKFCDVRFSTCDNQKSCMSNCSITSICEKPQEVCVAVWRKNDENITLETVCHDPKLPYHDFILEDAASPKCIMKEKKKPGETFFMCSCSSDECNDNIIFSEEYNTSNPD VL: EIVMTQSPATLSLSPGERATLSCRASQSVSSYLAWYQQKPGQAPRLLIYDASNRATGIPARFSGSGSGTDFTLTISSLEPEDFAVYYCQQYNNWPRTFGQGTKVEIK,15.1

# Molecular target: T1, TGF-β1
# Experiment: cell-based or functional assay
# Remark: another data set of the same source
row,Binder,"IC50, TGF-β1 neutralization activity (HEK-Blue TGF-β reporter cells) [pM]"
1,Anti-PD-1 (VL5-VH6).IgG4-Linker8 -TGFbRII (other) heavy (part 1 of 2): QVQLVESGGGVVQPGRSLRLDCKASGITFSNSGMHWVRQAPGKGLEWVAVIWYDGSKRYYADSVKGRFTISRDNSKNTLFLQMNSLRAEDTAVYYCATNDDYWGQGTLVTVSS heavy (part 2 of 2): DPGSGGSVPLGSGGSNPGSIPPHVQKSVNNDMIVTDNNGAVKFPQLCKFCDVRFSTCDNQKSCMSNCSITSICEKPQEVCVAVWRKNDENITLETVCHDPKLPYHDFILEDAASPKCIMKEKKKPGETFFMCSCSSDECNDNIIFSEEYNTSNPD VL: EIVLTQSPATLSLSPGERATLSCRASQSVSSYLAWYQQKPGQAPRLLIYDASNRATGIPARFSGSGSGTDFTLTISSLEPEDFAVYYCQQSSNWPRTFGQGTKVEIK,1.2
2,Anti-PD-1 (VL5-VH6).IgG4-Linker10 -TGFbRII (other) heavy (part 1 of 2): QVQLVESGGGVVQPGRSLRLDCKASGITFSNSGMHWVRQAPGKGLEWVAVIWYDGSKRYYADSVKGRFTISRDNSKNTLFLQMNSLRAEDTAVYYCATNDDYWGQGTLVTVSS heavy (part 2 of 2): DPGVLEREDVPTTSYPNPGSIPPHVQKSVNNDMIVTDNNGAVKFPQLCKFCDVRFSTCDNQKSCMSNCSITSICEKPQEVCVAVWRKNDENITLETVCHDPKLPYHDFILEDAASPKCIMKEKKKPGETFFMCSCSSDECNDNIIFSEEYNTSNPD VL: EIVLTQSPATLSLSPGERATLSCRASQSVSSYLAWYQQKPGQAPRLLIYDASNRATGIPARFSGSGSGTDFTLTISSLEPEDFAVYYCQQSSNWPRTFGQGTKVEIK,1.9
3,Anti-PD-1 (VL5-VH6).IgG4-Linker7 -TGFbRII (other) heavy (part 1 of 2): QVQLVESGGGVVQPGRSLRLDCKASGITFSNSGMHWVRQAPGKGLEWVAVIWYDGSKRYYADSVKGRFTISRDNSKNTLFLQMNSLRAEDTAVYYCATNDDYWGQGTLVTVSS heavy (part 2 of 2): DPGSGSVPLGSGSNPGSIPPHVQKSVNNDMIVTDNNGAVKFPQLCKFCDVRFSTCDNQKSCMSNCSITSICEKPQEVCVAVWRKNDENITLETVCHDPKLPYHDFILEDAASPKCIMKEKKKPGETFFMCSCSSDECNDNIIFSEEYNTSNPD VL: EIVLTQSPATLSLSPGERATLSCRASQSVSSYLAWYQQKPGQAPRLLIYDASNRATGIPARFSGSGSGTDFTLTISSLEPEDFAVYYCQQSSNWPRTFGQGTKVEIK,1.1
4,Anti-PD-1 (VL5-VH6).IgG4-Linker 2 -TGFbRII (other) heavy (part 1 of 2): QVQLVESGGGVVQPGRSLRLDCKASGITFSNSGMHWVRQAPGKGLEWVAVIWYDGSKRYYADSVKGRFTISRDNSKNTLFLQMNSLRAEDTAVYYCATNDDYWGQGTLVTVSS heavy (part 2 of 2): GGGGSGGGSIPPHVQKSVNNDMIVTDNNGAVKFPQLCKFCDVRFSTCDNQKSCMSNCSITSICEKPQEVCVAVWRKNDENITLETVCHDPKLPYHDFILEDAASPKCIMKEKKKPGETFFMCSCSSDECNDNIIFSEEYNTSNPD VL: EIVLTQSPATLSLSPGERATLSCRASQSVSSYLAWYQQKPGQAPRLLIYDASNRATGIPARFSGSGSGTDFTLTISSLEPEDFAVYYCQQSSNWPRTFGQGTKVEIK,1.2
5,Anti-PD-1 (VL5-VH6).IgG4-Linker12 -TGFbRII (other) heavy (part 1 of 2): QVQLVESGGGVVQPGRSLRLDCKASGITFSNSGMHWVRQAPGKGLEWVAVIWYDGSKRYYADSVKGRFTISRDNSKNTLFLQMNSLRAEDTAVYYCATNDDYWGQGTLVTVSS heavy (part 2 of 2): DPVLEREDKVTTSKNPGSIPPHVQKSVNNDMIVTDNNGAVKFPQLCKFCDVRFSTCDNQKSCMSNCSITSICEKPQEVCVAVWRKNDENITLETVCHDPKLPYHDFILEDAASPKCIMKEKKKPGETFFMCSCSSDECNDNIIFSEEYNTSNPD VL: EIVLTQSPATLSLSPGERATLSCRASQSVSSYLAWYQQKPGQAPRLLIYDASNRATGIPARFSGSGSGTDFTLTISSLEPEDFAVYYCQQSSNWPRTFGQGTKVEIK,2.7

# Molecular target: T2, PD-1 Fc fusion protein (UniProt Q15116 25-167, limits assumed)
# T2 construct: also called PD-1-Fc antigen; PD-1 fused to human Fc region; not shown: human Fc region
# T2 sequence (Q15116 25-167 limits assumed): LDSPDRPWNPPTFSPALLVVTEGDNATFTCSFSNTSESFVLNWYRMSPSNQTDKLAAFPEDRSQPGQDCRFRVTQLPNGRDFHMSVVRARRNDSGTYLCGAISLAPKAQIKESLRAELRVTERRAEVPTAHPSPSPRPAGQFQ
# Experiment: SPR (Biacore), PD-1-Fc antigen on CM5, 1:1 Langmuir with mass transfer
# Procedure: PD-1-Fc antigen and reference antigen was immobilized on Biacore CM5 surface. […] Kinetics data was evaluated for 1:1 model: Langmuir with mass transfer.
row,Binder,Kd [pM]
1,"Anti-PD-1 (nVL1-nVH3).IgG4(S108P) (antibody, V domains shown, IgG4 with S108P) VH: QVQLVESGGGVVQPGRSLRLDCKASGITFSNSGMHWVRQAPGKGLEWVAVIWYDGSKRYYADSVKGRFTISRDNSKNTLFLQMNSLRAEDTAVYYCATNNDYWGQGTLVTVSS VL: EIVMTQSPATLSLSPGERATLSCRASQSVSSYLAWYQQKPGQAPRLLIYDASNRATGIPARFSGSGSGTDFTLTISSLEPEDFAVYYCQQYNNWPRTFGQGTKVEIK",14.1
2,"Anti-PD-1 (nVL1-nVH3).IgG4 (antibody, V domains shown, IgG4) VH: QVQLVESGGGVVQPGRSLRLDCKASGITFSNSGMHWVRQAPGKGLEWVAVIWYDGSKRYYADSVKGRFTISRDNSKNTLFLQMNSLRAEDTAVYYCATNNDYWGQGTLVTVSS VL: EIVMTQSPATLSLSPGERATLSCRASQSVSSYLAWYQQKPGQAPRLLIYDASNRATGIPARFSGSGSGTDFTLTISSLEPEDFAVYYCQQYNNWPRTFGQGTKVEIK",14.8
